Here are results for 83 variants from the supplement of paper PMC6755084.

B1: minF1; a variant is named by its letters at N, in order (parent)
chain: GAGACCGCAACTGAAAAGTTGTTNNNNAANNNNNGGNTNAATTTCTGCACGTAGAAGCAAAAGGC

This data set covers variants of B1. Briefly: fraction ligated after 30 min (ligated reads / total reads); higher = more ligase activity. The conditions noted are these: with F1*subA RNA substrate (template-directed ligation), 42 °C. The essentials: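 Oligo-pool templates of minimized ligase ribozyme variants were PCR-amplified, T7-transcribed and gel-purified. Ligated and unligated RNAs were gel-separated, reverse transcribed with barcoded primers, and MiSeq-sequenced; core bases were filtered at quality ≥30. Fraction ligated per variant was ligated reads over total reads.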
In the case of GAGACCGCAACTGAAAAGTTGTTATCAGAAATGATGGTTAATTTCTGCACGTAGAAGCAAAAGGC, the fraction ligated was 0.00393. With GAGACCGCAACTGAAAAGTTGTTATCAAAATGATGGTTGAATTTCTGCACGTAGAAGCAAAAGGC, the fraction ligated was 0.00237.

Take GAGACCGCAACTGAAAAGTTGTATCAGAAAGGATGGGTTGATTTCTGCACGTAGAAGCAAAAGGC: the fraction ligated was determined as 0.00415. The same measure for GAGACCGCAACTGAAAAGTTGTTATCGAAATGATGGGTTAATTTCTGCACGTAGAAGCAAAAGGC: 0.00439; for GAGACCGCAACTGAAAAGTTGTTATCAAAAGGTGGGTTGAATTTCTGCACGTAGAAGCAAAAGGC: 0.00569; for GAGACCGCAACTGAAAAGTTGTTACAAAATGGATGGTTGAATTTCTGCACGTAGAAGCAAAAGGC: 0.0118. The same measure for GAGACCGCAACTGAAAAGTTGTTATCAAAATGGAGGGTTAATTTCTGCACGTAGAAGCAAAAGGC: 0.00569; for GAGACCGCAACTGAAAAGTTGTTTCAGAAATGGATGGTTAATTTCTGCACGTAGAAGCAAAAGGC: 0.0137.

With GAGACCGCAACTGAAAAGTTGTATCGAAATGGATGGGTTGATTTCTGCACGTAGAAGCAAAAGGC, the fraction ligated came out at 0.0572. As for GAGACCGCAACTGAAAAGTTGTTTAGAATGGATGGGTTGAATTTCTGCACGTAGAAGCAAAAGGC, the figure is 0.0101. The same measure for GAGACCGCAACTGAAAAGTTGTTACAAAATGGATGGGTTAATTTCTGCACGTAGAAGCAAAAGGC: 0.00325; for GAGACCGCAACTGAAAAGTTGTTATAGAATGGTGGGTTGAATTTCTGCACGTAGAAGCAAAAGGC: 0.0019. GAGACCGCAACTGAAAAGTTGTTATCAAAAGGATGGGTTGATTTCTGCACGTAGAAGCAAAAGGC: the fraction ligated came to 0.0124.

As to GAGACCGCAACTGAAAAGTTGTCAGAAATGGATGGGTTGAATTTCTGCACGTAGAAGCAAAAGGC, the fraction ligated was 0.0071. Take GAGACCGCAACTGAAAAGTTGTTACAGAAATGGTGGTTGAATTTCTGCACGTAGAAGCAAAAGGC: the fraction ligated is 0.00164.

For GAGACCGCAACTGAAAAGTTGTTATCGAAATGGTGGTTGAATTTCTGCACGTAGAAGCAAAAGGC, the fraction ligated stood at 0.00328. The same measure for GAGACCGCAACTGAAAAGTTGTTATCGAAATGGATGGGTTGTTTCTGCACGTAGAAGCAAAAGGC: 0.00105. Consider GAGACCGCAACTGAAAAGTTGTATCAGAATGGTGGGTTGAATTTCTGCACGTAGAAGCAAAAGGC, for which the fraction ligated turned out to be 0.00335. The same measure for GAGACCGCAACTGAAAAGTTGTTATCAAATGATGGGTTGAATTTCTGCACGTAGAAGCAAAAGGC: 0.00541; for GAGACCGCAACTGAAAAGTTGTTACAGAAAGGATGGGTTAATTTCTGCACGTAGAAGCAAAAGGC: 0.00215; for GAGACCGCAACTGAAAAGTTGTTACAAAATGATGGGTTGAATTTCTGCACGTAGAAGCAAAAGGC: 0.00381.

GAGACCGCAACTGAAAAGTTGTTACAGAAATATGGGTTGAATTTCTGCACGTAGAAGCAAAAGGC: the fraction ligated turned out to be 0.000749.

Turning to GAGACCGCAACTGAAAAGTTGTTATCGAAAGGATGGGTTGATTTCTGCACGTAGAAGCAAAAGGC, the fraction ligated is 0.0171. As to GAGACCGCAACTGAAAAGTTGTATCAGAAATATGGGTTGAATTTCTGCACGTAGAAGCAAAAGGC, the fraction ligated is 0.000828.

Take GAGACCGCAACTGAAAAGTTGTTTCAGAAAGGAGGGTTGAATTTCTGCACGTAGAAGCAAAAGGC: the fraction ligated is 0.00402. The same measure for GAGACCGCAACTGAAAAGTTGTTTCAGAAATGGTGGGTTGATTTCTGCACGTAGAAGCAAAAGGC: 0.00521; for GAGACCGCAACTGAAAAGTTGTTAAGAAATGGATGGGTTGATTTCTGCACGTAGAAGCAAAAGGC: 0.00604. Consider GAGACCGCAACTGAAAAGTTGTTAGAAATGGATGGGTTGAATTTCTGCACGTAGAAGCAAAAGGC, for which the fraction ligated stood at 0.00349. Regarding GAGACCGCAACTGAAAAGTTGTATAGAAAGGATGGGTTGAATTTCTGCACGTAGAAGCAAAAGGC, the fraction ligated is 0.00277. GAGACCGCAACTGAAAAGTTGTTATAAAAGGATGGGTTGAATTTCTGCACGTAGAAGCAAAAGGC: the fraction ligated is 0.00241. The same measure for GAGACCGCAACTGAAAAGTTGTTATCAGAAAGATGGTTGAATTTCTGCACGTAGAAGCAAAAGGC: 0.00113; for GAGACCGCAACTGAAAAGTTGTTATCGAAATGGAGGGTTAATTTCTGCACGTAGAAGCAAAAGGC: 0.00434. The same measure for GAGACCGCAACTGAAAAGTTGTTATCGAAATGGATGGTTAATTTCTGCACGTAGAAGCAAAAGGC: 0.0345; for GAGACCGCAACTGAAAAGTTGTTTCAGAAAGGTGGGTTGAATTTCTGCACGTAGAAGCAAAAGGC: 0.00137.

As to GAGACCGCAACTGAAAAGTTGTTATCAGAAAGTGGGTTGAATTTCTGCACGTAGAAGCAAAAGGC, the fraction ligated is 0.00347. As for GAGACCGCAACTGAAAAGTTGTTTCAGAAATGGATGGGTTGTTTCTGCACGTAGAAGCAAAAGGC, the figure is 0.000378; as for GAGACCGCAACTGAAAAGTTGTTATCGAAATGGATGGGTTATTTCTGCACGTAGAAGCAAAAGGC, 0.0031.

Consider GAGACCGCAACTGAAAAGTTGTTCAGAAATGGATGGGTTGATTTCTGCACGTAGAAGCAAAAGGC, for which the fraction ligated is 0.0159. The same measure for GAGACCGCAACTGAAAAGTTGTTATCAGAAATGGGGTTGAATTTCTGCACGTAGAAGCAAAAGGC: 0.00482.

Regarding GAGACCGCAACTGAAAAGTTGTTACAGAAATGGATGGGTTGTTTCTGCACGTAGAAGCAAAAGGC, the fraction ligated was determined as 0.000565. As to GAGACCGCAACTGAAAAGTTGTATCAGAATGGATGGTTGAATTTCTGCACGTAGAAGCAAAAGGC, the fraction ligated was determined as 0.0201. The same measure for GAGACCGCAACTGAAAAGTTGTATAGAAATGGAGGGTTGAATTTCTGCACGTAGAAGCAAAAGGC: 0; for GAGACCGCAACTGAAAAGTTGTTATCGAAGGATGGGTTGAATTTCTGCACGTAGAAGCAAAAGGC: 0.00497; for GAGACCGCAACTGAAAAGTTGTTACAGAAATGGTGGGTTAATTTCTGCACGTAGAAGCAAAAGGC: 0.002. The same measure for GAGACCGCAACTGAAAAGTTGTTACAGAAATGGATGGTTGATTTCTGCACGTAGAAGCAAAAGGC: 0.0182; for GAGACCGCAACTGAAAAGTTGTTTAGAAATGGTGGGTTGAATTTCTGCACGTAGAAGCAAAAGGC: 0.0039.

Take GAGACCGCAACTGAAAAGTTGTTATCAGAATGAGGGTTGAATTTCTGCACGTAGAAGCAAAAGGC: the fraction ligated came to 0.00195.

With GAGACCGCAACTGAAAAGTTGTACAGAAATGGATGGGTTGATTTCTGCACGTAGAAGCAAAAGGC, the fraction ligated came to 0.0214.

For GAGACCGCAACTGAAAAGTTGTTACGAAATGGATGGTTGAATTTCTGCACGTAGAAGCAAAAGGC, the fraction ligated turned out to be 0.0663. The same measure for GAGACCGCAACTGAAAAGTTGTACAGAATGGATGGGTTGAATTTCTGCACGTAGAAGCAAAAGGC: 0.00891; for GAGACCGCAACTGAAAAGTTGTTACGAAATGGATGGGTTAATTTCTGCACGTAGAAGCAAAAGGC: 0.0146. The same measure for GAGACCGCAACTGAAAAGTTGTTATAGAAATGATGGTTGAATTTCTGCACGTAGAAGCAAAAGGC: 0.00301. The same measure for GAGACCGCAACTGAAAAGTTGTTAAAAATGGATGGGTTGAATTTCTGCACGTAGAAGCAAAAGGC: 0.00415; for GAGACCGCAACTGAAAAGTTGTTATCAGAAATGGTGGTTAATTTCTGCACGTAGAAGCAAAAGGC: 0.00148; for GAGACCGCAACTGAAAAGTTGTATAGAAATGGTGGGTTGAATTTCTGCACGTAGAAGCAAAAGGC: 0.00156. On to GAGACCGCAACTGAAAAGTTGTATAGAAATGGATGGGTTGATTTCTGCACGTAGAAGCAAAAGGC, for which the fraction ligated amounted to 0.00768. As for GAGACCGCAACTGAAAAGTTGTTTCAGAAATGGAGGTTGAATTTCTGCACGTAGAAGCAAAAGGC, the fraction ligated stood at 0.00236. As for GAGACCGCAACTGAAAAGTTGTATCAGAAATGGTGGTTGAATTTCTGCACGTAGAAGCAAAAGGC, the figure is 0.00182; as for GAGACCGCAACTGAAAAGTTGTTTCAAAATGGTGGGTTGAATTTCTGCACGTAGAAGCAAAAGGC, 0.00313. In the case of GAGACCGCAACTGAAAAGTTGTATCAGAAATGATGGGTTGATTTCTGCACGTAGAAGCAAAAGGC, the fraction ligated was 0.0104. GAGACCGCAACTGAAAAGTTGTTATAAAATGGATGGGTTAATTTCTGCACGTAGAAGCAAAAGGC: the fraction ligated came to 0.00257.

Take GAGACCGCAACTGAAAAGTTGTTCAGAAATGGTGGGTTGAATTTCTGCACGTAGAAGCAAAAGGC: the fraction ligated is 0.00442. GAGACCGCAACTGAAAAGTTGTTTCAAAATGATGGGTTGAATTTCTGCACGTAGAAGCAAAAGGC: the fraction ligated worked out at 0.00347. As for GAGACCGCAACTGAAAAGTTGTTTCAGAAAGGATGGGTTAATTTCTGCACGTAGAAGCAAAAGGC, the figure is 0.00375; as for GAGACCGCAACTGAAAAGTTGTATCGAAATGATGGGTTGAATTTCTGCACGTAGAAGCAAAAGGC, 0.00559. With GAGACCGCAACTGAAAAGTTGTTATCGAAAGGATGGGTTAATTTCTGCACGTAGAAGCAAAAGGC, the fraction ligated turned out to be 0.004. The same measure for GAGACCGCAACTGAAAAGTTGTTATCAAAAGATGGGTTGAATTTCTGCACGTAGAAGCAAAAGGC: 0.00503; for GAGACCGCAACTGAAAAGTTGTTATCGAAATATGGGTTGAATTTCTGCACGTAGAAGCAAAAGGC: 0.00384. As for GAGACCGCAACTGAAAAGTTGTATGAAATGGATGGGTTGAATTTCTGCACGTAGAAGCAAAAGGC, the figure is 0.00369; as for GAGACCGCAACTGAAAAGTTGTTACAAAATGGAGGGTTGAATTTCTGCACGTAGAAGCAAAAGGC, 0.00318. As for GAGACCGCAACTGAAAAGTTGTTATCAGAAAGGTGGGTTAATTTCTGCACGTAGAAGCAAAAGGC, the figure is 0.00198. In the case of GAGACCGCAACTGAAAAGTTGTTATCAGATGGATGGTTGAATTTCTGCACGTAGAAGCAAAAGGC, the fraction ligated was determined as 0.00743. As for GAGACCGCAACTGAAAAGTTGTTATCAGTGGATGGGTTGAATTTCTGCACGTAGAAGCAAAAGGC, the fraction ligated amounted to 0.00511.

On to GAGACCGCAACTGAAAAGTTGTATCAAAATGGAGGGTTGAATTTCTGCACGTAGAAGCAAAAGGC, for which the fraction ligated was 0.00168. As for GAGACCGCAACTGAAAAGTTGTTATCAGAAAGGAGGGTTAATTTCTGCACGTAGAAGCAAAAGGC, the figure is 0.00277. As for GAGACCGCAACTGAAAAGTTGTTTCGAAAGGATGGGTTGAATTTCTGCACGTAGAAGCAAAAGGC, the figure is 0.00582. As for GAGACCGCAACTGAAAAGTTGTATCAGAAAGGTGGGTTGAATTTCTGCACGTAGAAGCAAAAGGC, the figure is 0.0038. In the case of GAGACCGCAACTGAAAAGTTGTATCAGAAATGGATGGGTTATTTCTGCACGTAGAAGCAAAAGGC, the fraction ligated was 0.00248. Take GAGACCGCAACTGAAAAGTTGTTTCAGAAAGGATGGGTTGATTTCTGCACGTAGAAGCAAAAGGC: the fraction ligated worked out at 0.00564.

Consider GAGACCGCAACTGAAAAGTTGTTATCAAAATGAGGGTTGAATTTCTGCACGTAGAAGCAAAAGGC, for which the fraction ligated was found to be 0.003.

Regarding GAGACCGCAACTGAAAAGTTGTTACAGAATGGATGGTTGAATTTCTGCACGTAGAAGCAAAAGGC, the fraction ligated worked out at 0.013. As for GAGACCGCAACTGAAAAGTTGTTATCAGAAATGGAGGTTGATTTCTGCACGTAGAAGCAAAAGGC, the figure is 0.00585. In the case of GAGACCGCAACTGAAAAGTTGTTATAGAATGATGGGTTGAATTTCTGCACGTAGAAGCAAAAGGC, the fraction ligated stood at 0.00472.
